# Biological target: the molecule itself
# Experiment: SDS-resistant oligomer on SDS-PAGE and immunoblot
protein,measurement,value
"fh1-HAP2-HA (HAP2 with W173A and F177A mutations in the fusion loop) (natural protein, Chlamydomonas reinhardtii, UniProt A4GRC6 23-1139, looked up) EVIASGRLEKCVVDGVTEELDCQEKVVVTLTVGNGQSLQTEALEFSLSCLNSPDGRCPCSCSAADPTCACRDLAAPLRVSLTKSPLWASYPLQYLSSFNWKPLEVILRPSNKVCKDGDWEDSPTCGWFSQGGVRVADSQGFCCECSSSQVADDTAGSSKERTRANLDCDFWSDPLDILIGRKPVSAHCLTFDPQWYSGYELGAASLQFEIAITVEVPTAPSPTTATTSATPRTNNSSSANSTNSTNSPAPQFLSPPAPSTREVLHLGPSVPLASSASRLLSAKLLGDLAMYTQLPAISNQVLMVPQPPAAAAATGSPLDATLATNRSAWMLLDKTMLSMDGLACDKVGTGFSAFRYQPSGCGRAPQACLSGQLKDLWEADLARIADGRVPLYMITRFTGGSDTTLQSFSGGPLSFALPVTSHSQSLVTLSVAADGVRLVTNRSPGKITGAAVCRFAGTSCGGFEAVAARGYIYVNITNTGRLDSDYTLTVSNCSSNVRPIEARTLAVRAGSAASLDPPMELYVEDQAAAAARTCTVSLYDSVGAVTDSLTLSFYTNATQLVVKPSGGYNGTGDGAGVKRNGTDCSTACTNPIDVLCFVTKKCWSKFGRLLGIIGGALVGLGLLAVALKFGWLASLAASCCGGGGGAAAGGAGGGMGLGTGGGGGCFGGGQQQQQLPPAASHAMSPPQQQQRSHAEVAAGAAVAGAGAAGAAAAVLGAKHGGGGGGARGKQQHADTRHLQDRDSRAIDGGASIGSSSAGGSSSLSSYSQPREAGGRLLQPPAAAVFVPEGGGGGAAGDEGARAQSSDWDARGRSPRVADEHGSPRQRYDGVRQSPYMVSANPYDGWYDGGSGGGGGGGGGGYGREAPPPQGPPPHPVGAPPPPPRRRSLWERMWLQRPGGGGGGGGGGGGGGGGGSGGGVDQHGGRSCADAARRGGGGPGGMRGVEGLMSNGGRPNGPHPHAPPPPPPPQQQQQQQRQRRSFLESLTAMMTLPWGGGREEEAGGDRRGGGRGGAAAAHGGRGAGGGRGHPPSIGSPPPGPLQPPEYGPQGGQARRWGAGGGRGGVGGDGGGGGVGAAAYVQLSTGGRGGGGGGGRGRGGGREGPTWHNPVYDWQAPPK",stoichiometry N,3

# Reference: paper PMC13601591 (Nature Communications, 2026)
